In the supplement of paper PMC10065799, “High-throughput profiling of sequence recognition by tyrosine kinases and SH2 domains using bacterial peptide display” (eLife, 2023):

Key:
[1] = target: EPHB2 (UniProt P29323); assay: phosphorylation enrichment, bacterial display (enrichment ratio); higher = better substrate or ligand; peptides without Tyr show the background
[2] = system: Fer (mouse); assay: as above
[3] = target: EPHB1 (UniProt P54762); assay: as above
[4] = target: Fes (UniProt P07332); assay: as above
[5] = target: Fyn (UniProt P06241); assay: as above
[6] = target: Jak2 (UniProt O60674); assay: as above
[7] = system: AncSZ; assay: as above
[8] = target: MERTK (UniProt Q12866); assay: as above
[9] = target: FGFR3 (UniProt P22607); assay: as above
[10] = system: c-Abl (mouse); assay: as above
[11] = target: FGFR1 (UniProt P11362); assay: as above
[12] = target: Hck (UniProt P08631); assay: as above
[13] = system: c-Src; assay: as above
[14] = target: SHP2-C SH2; assay: SH2 binding enrichment of the phosphorylated peptide, bacterial display (enrichment ratio); higher = better substrate or ligand; peptides without Tyr show the background
[15] = target: c-Src SH2; assay: as above
[16] = target: Grb2 SH2 (UniProt P62993); assay: as above
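Throughout, for SH2 binding enrichment of the phosphorylated peptide, bacterial display: peptide library displayed on the E. coli surface as eCPX fusions, selected cells deep-sequenced, score is each peptide's frequency after selection divided by its frequency in the input.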
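Throughout, for phosphorylation enrichment, bacterial display: 11-residue human phosphosite peptides and single-mutation variants displayed on the E. coli surface, counted by deep sequencing, each peptide's frequency after selection divided by its frequency in the unselected input library; frequency after pTyr selection over input frequency; kinase dosed for 20-30% of maximal phosphorylation in three min.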

Chain of FGFR1 (P11362 whole entry, looked up): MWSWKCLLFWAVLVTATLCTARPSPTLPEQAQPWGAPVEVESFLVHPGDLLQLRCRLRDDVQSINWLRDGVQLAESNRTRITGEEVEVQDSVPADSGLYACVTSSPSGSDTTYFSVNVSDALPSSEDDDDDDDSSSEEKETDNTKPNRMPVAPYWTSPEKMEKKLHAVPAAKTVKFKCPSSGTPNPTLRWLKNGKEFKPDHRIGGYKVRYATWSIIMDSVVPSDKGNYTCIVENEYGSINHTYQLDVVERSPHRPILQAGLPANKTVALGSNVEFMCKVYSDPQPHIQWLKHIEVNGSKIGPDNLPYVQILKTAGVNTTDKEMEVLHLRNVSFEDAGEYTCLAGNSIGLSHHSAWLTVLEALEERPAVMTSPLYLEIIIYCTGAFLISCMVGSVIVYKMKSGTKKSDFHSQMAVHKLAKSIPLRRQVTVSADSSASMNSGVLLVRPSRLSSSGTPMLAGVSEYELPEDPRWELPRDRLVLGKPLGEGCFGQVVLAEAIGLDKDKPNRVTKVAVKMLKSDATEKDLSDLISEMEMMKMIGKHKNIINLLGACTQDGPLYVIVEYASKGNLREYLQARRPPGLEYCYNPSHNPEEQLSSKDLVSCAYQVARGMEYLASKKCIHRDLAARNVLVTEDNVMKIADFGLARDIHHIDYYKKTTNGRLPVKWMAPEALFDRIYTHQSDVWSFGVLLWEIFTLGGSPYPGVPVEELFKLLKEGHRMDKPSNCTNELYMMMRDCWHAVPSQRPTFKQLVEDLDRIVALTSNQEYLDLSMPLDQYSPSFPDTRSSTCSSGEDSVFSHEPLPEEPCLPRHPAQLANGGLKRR
Chain of EPHB2 (P29323 whole entry, looked up): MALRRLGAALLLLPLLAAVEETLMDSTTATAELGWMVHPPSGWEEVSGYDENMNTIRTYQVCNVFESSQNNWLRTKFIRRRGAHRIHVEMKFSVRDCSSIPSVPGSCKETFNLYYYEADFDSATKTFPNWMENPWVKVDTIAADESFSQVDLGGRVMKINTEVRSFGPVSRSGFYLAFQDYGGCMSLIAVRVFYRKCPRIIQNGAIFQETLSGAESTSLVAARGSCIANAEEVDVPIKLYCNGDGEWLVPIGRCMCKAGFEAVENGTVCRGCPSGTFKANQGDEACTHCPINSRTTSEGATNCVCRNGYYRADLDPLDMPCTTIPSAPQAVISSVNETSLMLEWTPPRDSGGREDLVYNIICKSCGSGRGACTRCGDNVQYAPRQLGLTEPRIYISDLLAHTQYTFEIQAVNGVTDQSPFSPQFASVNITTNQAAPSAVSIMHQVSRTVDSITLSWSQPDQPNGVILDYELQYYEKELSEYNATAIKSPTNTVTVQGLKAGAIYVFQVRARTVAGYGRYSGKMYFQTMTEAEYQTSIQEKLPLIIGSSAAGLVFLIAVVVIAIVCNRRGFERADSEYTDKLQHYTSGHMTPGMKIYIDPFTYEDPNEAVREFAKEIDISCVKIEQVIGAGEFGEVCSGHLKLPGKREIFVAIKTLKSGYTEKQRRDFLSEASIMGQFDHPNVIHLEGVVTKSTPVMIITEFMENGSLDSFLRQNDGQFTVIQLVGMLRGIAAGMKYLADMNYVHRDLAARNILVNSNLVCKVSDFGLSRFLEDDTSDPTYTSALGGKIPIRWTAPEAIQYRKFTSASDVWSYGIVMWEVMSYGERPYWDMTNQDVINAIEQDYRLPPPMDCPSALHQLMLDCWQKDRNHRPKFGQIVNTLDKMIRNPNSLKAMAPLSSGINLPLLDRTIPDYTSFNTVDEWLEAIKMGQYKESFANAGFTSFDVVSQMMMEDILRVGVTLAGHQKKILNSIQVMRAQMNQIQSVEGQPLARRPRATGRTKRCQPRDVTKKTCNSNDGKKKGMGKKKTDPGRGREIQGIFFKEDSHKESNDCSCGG
Chain of Fes (P07332 whole entry, looked up): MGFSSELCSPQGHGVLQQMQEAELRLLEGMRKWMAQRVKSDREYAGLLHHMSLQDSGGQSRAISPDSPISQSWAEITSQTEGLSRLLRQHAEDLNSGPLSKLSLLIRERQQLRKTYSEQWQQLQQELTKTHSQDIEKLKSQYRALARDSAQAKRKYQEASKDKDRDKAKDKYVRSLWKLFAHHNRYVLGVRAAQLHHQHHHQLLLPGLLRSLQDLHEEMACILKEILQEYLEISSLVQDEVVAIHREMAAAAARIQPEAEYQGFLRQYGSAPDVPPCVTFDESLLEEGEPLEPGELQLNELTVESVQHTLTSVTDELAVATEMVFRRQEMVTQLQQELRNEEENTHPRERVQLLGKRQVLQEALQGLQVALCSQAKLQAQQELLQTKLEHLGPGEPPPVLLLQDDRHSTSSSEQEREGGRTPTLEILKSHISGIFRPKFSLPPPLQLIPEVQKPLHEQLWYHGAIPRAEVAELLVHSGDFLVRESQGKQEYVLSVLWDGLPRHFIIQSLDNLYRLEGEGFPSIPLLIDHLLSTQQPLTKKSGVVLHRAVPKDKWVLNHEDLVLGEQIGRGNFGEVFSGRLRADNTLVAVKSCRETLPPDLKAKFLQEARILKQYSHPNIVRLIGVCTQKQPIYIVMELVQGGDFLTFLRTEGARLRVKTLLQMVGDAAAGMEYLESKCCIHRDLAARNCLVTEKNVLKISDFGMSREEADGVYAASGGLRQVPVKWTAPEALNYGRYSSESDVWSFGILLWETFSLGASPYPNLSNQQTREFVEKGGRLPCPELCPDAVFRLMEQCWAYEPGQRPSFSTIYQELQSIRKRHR
Chain of FGFR3 (P22607 whole entry, looked up): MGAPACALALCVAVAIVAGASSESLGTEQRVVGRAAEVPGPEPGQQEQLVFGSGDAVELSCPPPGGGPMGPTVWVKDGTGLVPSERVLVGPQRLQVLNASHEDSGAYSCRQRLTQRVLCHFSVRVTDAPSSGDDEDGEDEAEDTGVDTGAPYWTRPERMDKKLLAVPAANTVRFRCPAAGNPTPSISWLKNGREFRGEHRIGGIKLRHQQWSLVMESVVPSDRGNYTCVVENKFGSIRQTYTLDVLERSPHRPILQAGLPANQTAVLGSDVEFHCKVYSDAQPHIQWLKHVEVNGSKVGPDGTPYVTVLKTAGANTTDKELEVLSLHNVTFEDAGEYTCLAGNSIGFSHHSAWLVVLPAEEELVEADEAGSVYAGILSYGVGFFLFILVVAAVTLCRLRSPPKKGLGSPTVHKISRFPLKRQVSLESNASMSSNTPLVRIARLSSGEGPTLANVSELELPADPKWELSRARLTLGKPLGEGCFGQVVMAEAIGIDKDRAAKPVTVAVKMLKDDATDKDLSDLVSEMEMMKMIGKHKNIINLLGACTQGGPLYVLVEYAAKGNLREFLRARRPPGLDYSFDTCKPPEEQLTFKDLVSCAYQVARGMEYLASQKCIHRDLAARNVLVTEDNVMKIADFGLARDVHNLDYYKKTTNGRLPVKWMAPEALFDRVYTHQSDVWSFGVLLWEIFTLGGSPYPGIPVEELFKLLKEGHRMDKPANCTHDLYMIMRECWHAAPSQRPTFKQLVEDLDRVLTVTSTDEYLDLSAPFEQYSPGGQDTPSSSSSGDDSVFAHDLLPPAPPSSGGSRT
Chain of Hck (P08631 whole entry, looked up): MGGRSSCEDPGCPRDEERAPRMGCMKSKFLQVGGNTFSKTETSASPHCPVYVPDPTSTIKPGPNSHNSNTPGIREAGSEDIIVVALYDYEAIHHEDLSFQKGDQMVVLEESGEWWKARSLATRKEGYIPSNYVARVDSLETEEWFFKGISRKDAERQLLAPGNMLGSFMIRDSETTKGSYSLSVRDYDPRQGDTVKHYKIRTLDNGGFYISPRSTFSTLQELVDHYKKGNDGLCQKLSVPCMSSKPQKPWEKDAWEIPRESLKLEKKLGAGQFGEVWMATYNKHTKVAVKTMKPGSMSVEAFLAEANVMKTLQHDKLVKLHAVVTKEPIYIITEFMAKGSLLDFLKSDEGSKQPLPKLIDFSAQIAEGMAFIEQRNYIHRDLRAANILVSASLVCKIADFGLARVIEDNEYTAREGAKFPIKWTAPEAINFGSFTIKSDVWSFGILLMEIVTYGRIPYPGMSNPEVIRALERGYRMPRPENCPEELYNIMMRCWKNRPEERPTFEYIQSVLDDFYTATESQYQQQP
Chain of MERTK (Q12866 whole entry, looked up): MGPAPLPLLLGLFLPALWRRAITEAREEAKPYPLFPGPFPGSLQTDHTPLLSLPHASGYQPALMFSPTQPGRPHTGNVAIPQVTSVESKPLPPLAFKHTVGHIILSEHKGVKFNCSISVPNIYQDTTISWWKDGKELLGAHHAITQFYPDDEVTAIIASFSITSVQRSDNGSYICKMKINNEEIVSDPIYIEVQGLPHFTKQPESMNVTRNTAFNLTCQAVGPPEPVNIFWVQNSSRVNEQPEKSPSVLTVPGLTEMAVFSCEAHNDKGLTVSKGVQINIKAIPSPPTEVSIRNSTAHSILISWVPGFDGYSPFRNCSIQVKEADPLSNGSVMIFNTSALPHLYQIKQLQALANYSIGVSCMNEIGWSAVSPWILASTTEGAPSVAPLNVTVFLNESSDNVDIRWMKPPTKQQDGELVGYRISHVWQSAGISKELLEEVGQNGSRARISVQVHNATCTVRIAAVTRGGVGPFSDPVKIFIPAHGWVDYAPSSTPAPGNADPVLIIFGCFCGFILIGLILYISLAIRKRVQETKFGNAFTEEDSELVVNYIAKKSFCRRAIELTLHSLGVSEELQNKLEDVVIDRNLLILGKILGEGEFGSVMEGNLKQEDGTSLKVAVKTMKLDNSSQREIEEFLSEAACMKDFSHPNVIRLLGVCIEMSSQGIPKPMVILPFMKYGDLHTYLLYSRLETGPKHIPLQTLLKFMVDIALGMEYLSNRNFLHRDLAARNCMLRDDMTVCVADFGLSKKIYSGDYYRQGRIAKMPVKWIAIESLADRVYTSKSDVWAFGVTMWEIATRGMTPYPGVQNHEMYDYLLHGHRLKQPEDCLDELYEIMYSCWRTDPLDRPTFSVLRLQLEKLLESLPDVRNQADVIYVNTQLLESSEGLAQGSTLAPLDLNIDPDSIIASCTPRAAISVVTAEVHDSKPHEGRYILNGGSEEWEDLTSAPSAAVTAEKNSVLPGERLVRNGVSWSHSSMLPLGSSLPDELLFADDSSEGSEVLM

| Sequence | SH2 binding enrichment [14] | SH2 binding enrichment [15] | SH2 binding enrichment [16] | phosphorylation enrichment [1] | phosphorylation enrichment [2] | phosphorylation enrichment [3] | phosphorylation enrichment [4] | phosphorylation enrichment [5] | phosphorylation enrichment [6] | phosphorylation enrichment [7] | phosphorylation enrichment [8] | phosphorylation enrichment [9] | phosphorylation enrichment [10] | phosphorylation enrichment [11] | phosphorylation enrichment [12] | phosphorylation enrichment [13] |
| --- | --- | --- | --- | --- | --- | --- | --- | --- | --- | --- | --- | --- | --- | --- | --- | --- |
| AAETTYDKILK [GDNF_Y156] | 1.28 | 3.75 | 0.708 | 0.496 | 0.474 | 0.555 | 1.09 | 0.596 | 0.888 | 0.886 | 0.376 | 0.725 | 0.521 | 0.467 | 1.36 | 0.501 |
| AAVDNYCRHNY [HLA-DRB1_Y107_T106N] | 0.72 | 0.631 | 0.765 | 0.669 | 0.427 | 0.519 | 0.808 | 0.388 | 0.612 | 0.621 | 0.46 | 0.649 | 0.502 | 0.521 | 0.461 | 0.376 |
| AAVNGYVFGGG [ECHS1_Y137_A138V] | 0.994 | 0.489 | 0.791 | 0.398 | 0.414 | 0.419 | 0.542 | 0.404 | 0.591 | 0.596 | 0.401 | 0.629 | 0.582 | 0.437 | 0.429 | 0.461 |
| ADFFDYGHGLS [KHDRBS3_Y304_YF] | 0.741 | 0.437 | 0.863 | 0.38 | 0.433 | 0.585 | 0.905 | 0.438 | 1.03 | 0.709 | 0.434 | 0.727 | 0.76 | 0.459 | 0.522 | 0.449 |
| ADRSCYDLSCR [GARS1_Y467_H472R] | 0.779 | 1.17 | 1.06 | 0.591 | 0.474 | 0.487 | 0.835 | 0.572 | 0.8 | 0.849 | 0.445 | 0.55 | 0.847 | 0.499 | 0.594 | 0.616 |
| ADSLRYIYPKL [EIF2B3_Y92] | 1.89 | 12.5 | 1.05 | 0.362 | 0.339 | 0.416 | 0.602 | 0.332 | 0.634 | 0.552 | 0.43 | 0.463 | 0.471 | 0.354 | 0.386 | 0.472 |
| ADYYDYGHGLS [KHDRBS3_Y304] | 0.634 | 0.601 | 1.04 | 20.5 | 1.95 | 17.9 | 1.11 | 6.6 | 5.75 | 3.92 | 4.16 | 16.8 | 0.986 | 18.5 | 6.46 | 4.65 |
| AESPEHVHMYT [FAM111A_Y511_Y511H] | 0.674 | 0.489 | 0.822 | 0.474 | 0.432 | 0.523 | 0.861 | 0.476 | 0.687 | 0.812 | 0.377 | 0.609 | 0.476 | 0.533 | 0.547 | 0.369 |
| AFGTVYKGLWI [EGFR_Y727] | 1.3 | 0.628 | 0.857 | 0.587 | 0.511 | 0.532 | 1.13 | 0.593 | 1.16 | 1.2 | 0.39 | 0.755 | 0.724 | 0.517 | 0.525 | 0.619 |
| AFLLLYFNDTH [BMP15_Y235] | 0.79 | 0.566 | 1.01 | 0.496 | 0.525 | 0.761 | 1.41 | 0.445 | 1.26 | 1.15 | 0.43 | 0.915 | 1.16 | 0.49 | 0.482 | 0.486 |

Second part, led by results:

| SH2 binding enrichment [14] | SH2 binding enrichment [15] | SH2 binding enrichment [16] | Sequence | phosphorylation enrichment [1] | phosphorylation enrichment [2] | phosphorylation enrichment [3] | phosphorylation enrichment [4] | phosphorylation enrichment [5] | phosphorylation enrichment [6] | phosphorylation enrichment [7] | phosphorylation enrichment [8] | phosphorylation enrichment [9] | phosphorylation enrichment [10] | phosphorylation enrichment [11] | phosphorylation enrichment [12] | phosphorylation enrichment [13] |
| --- | --- | --- | --- | --- | --- | --- | --- | --- | --- | --- | --- | --- | --- | --- | --- | --- |
| 0.525 | 0.449 | 0.788 | ADKAAYLQSMN [MYH2_Y389_L393M] | 0.419 | 0.411 | 0.545 | 0.761 | 0.415 | 0.609 | 0.499 | 0.366 | 0.654 | 0.591 | 0.47 | 0.436 | 0.459 |
| 0.467 | 0.538 | 0.513 | ADRNHYRRYRR [YBX1_Y145_P149R] | 0.499 | 0.488 | 0.522 | 0.861 | 0.525 | 0.549 | 0.619 | 0.532 | 0.572 | 0.661 | 0.532 | 0.522 | 0.608 |
| 0.84 | 0.473 | 1.05 | AELVQYFMEHH [PTPN11_Y80_YF] | 0.545 | 0.463 | 0.618 | 1.08 | 0.623 | 0.695 | 1.02 | 0.508 | 0.762 | 0.547 | 0.652 | 0.66 | 0.437 |
| 0.636 | 0.508 | 0.806 | AEYGLYGAMVR [VSX2_Y222] | 2.5 | 2.03 | 0.824 | 0.786 | 7.64 | 0.675 | 0.99 | 1.97 | 0.604 | 0.908 | 0.456 | 6.91 | 5.06 |
| 0.724 | 0.508 | 0.772 | AFEQQYSPIPR [NOX1_Y373] | 0.512 | 0.451 | 0.404 | 0.707 | 0.624 | 0.583 | 0.767 | 1.25 | 0.769 | 0.701 | 1.07 | 4.92 | 0.989 |
| 1.25 | 1.14 | 1.35 | AGLVQYYMEHH [PTPN11_Y80_E76G] | 0.777 | 0.499 | 0.973 | 0.939 | 0.545 | 0.607 | 0.677 | 0.49 | 0.73 | 0.448 | 0.608 | 0.754 | 0.468 |
